Measured values: patent publication US20130116129

Tests used:
mouse IgG (Mus musculus) = assay: SELEX
[1] = system: rat IgG (Rattus norvegicus); assay: SELEX; settings: uppercase RNA, lowercase DNA

## CGAUAGGUGUUGAGGGGUAUCUCAGCGCUUGUUG [T1-GGGTAT]
Mouse IgG (Mus musculus); beads alone 37, p=0.039, 37 C
  binding signal: 787 reads

## CGCCTCTCCGAGAGTGTAUUAACCACAUTCTUGGAGAGGUG [T3-ATTAACC]
Mouse IgG (Mus musculus); uppercase RNA, lowercase DNA, protein G beads 78, 150 mM NaCl, 10 mM MgCl2
  binding signal: 3120 reads
[1]; below protein G bead background of 78
  binding signal: 25 reads

## CGAUAGGUGUUGAGGUGGAUCUCAGCGCUUGUUG [T1-GTGGAT]
Mouse IgG (Mus musculus); beads alone 24, p=0.014, 37 C, library assigned to SEQ 2 from six-base random region
  binding signal: 1560 reads

## CGAUAGGUGUUGAGUUGGUUCUCAGCGCUUGUUG [T1-TTGGTT]
Mouse IgG (Mus musculus); beads alone 23, p=0.048, 37 C
  binding signal: 713 reads

## CGAUAGGUGUUGAGGGCGAUCUCAGCGCUUGUUG [T1-GGCGAT]
Mouse IgG (Mus musculus); beads alone 155, p=0.037, 37 C
  binding signal: 691 reads

## CGAUAGGUGUUGAGUUCGAUCUCAGCGCUUGUUG [T1-TTCGAT]
Mouse IgG (Mus musculus); beads alone 44, p=0.019, 37 C
  binding signal: 548 reads

## CGAUAGGUGUUGAGUGGGCUCUCAGCGCUUGUUG [T1-TGGGCT]
Mouse IgG (Mus musculus); beads alone 78, p=0.014, before selection 201, p=0.123, 37 C
  binding signal: 605 reads

## CGCCTCTCCGAGAGTGTAGGGCAUACAUTCTUGGAGAGGUG [T3-AGGGCAT]
Mouse IgG (Mus musculus); uppercase RNA, lowercase DNA, protein G beads 3
  binding signal: 18 reads
[1]; protein G beads 3
  binding signal: 106 reads

## CGAUAGGUGUUGAGGUUGGUCUCAGCGCUUGUUG [T1-GTTGGT]
Mouse IgG (Mus musculus); beads alone 25, p=0.035, 37 C
  binding signal: 605 reads

## CGAUAGGUGUUGAGGUGGGUCUCAGCGCUUGUUG [T1-GTGGGT]
Mouse IgG (Mus musculus); beads alone 136, p=0.024, 37 C
  binding signal: 730 reads
